Values of other authors as cited in PMC4621241.

Target: MetQ (Escherichia coli) (UniProt P28635)
Sequence (P28635 23-271): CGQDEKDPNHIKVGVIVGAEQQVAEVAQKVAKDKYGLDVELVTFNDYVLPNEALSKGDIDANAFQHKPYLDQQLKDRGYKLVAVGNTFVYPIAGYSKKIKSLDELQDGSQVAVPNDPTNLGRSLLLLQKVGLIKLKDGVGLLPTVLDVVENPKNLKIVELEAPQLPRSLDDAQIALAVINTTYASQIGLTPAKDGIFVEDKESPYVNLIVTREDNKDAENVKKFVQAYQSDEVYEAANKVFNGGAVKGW

Sequence of MetNI (P30750 whole entry): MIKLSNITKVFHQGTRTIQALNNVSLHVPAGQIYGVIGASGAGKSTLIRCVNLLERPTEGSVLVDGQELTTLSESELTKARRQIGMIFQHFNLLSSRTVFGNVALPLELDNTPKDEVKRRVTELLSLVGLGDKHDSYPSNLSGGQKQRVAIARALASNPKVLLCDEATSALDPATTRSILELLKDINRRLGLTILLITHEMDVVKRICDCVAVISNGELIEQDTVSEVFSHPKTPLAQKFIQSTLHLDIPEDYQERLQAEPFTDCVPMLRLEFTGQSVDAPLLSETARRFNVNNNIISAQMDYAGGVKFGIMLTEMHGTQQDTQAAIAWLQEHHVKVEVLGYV
Sequence of MetNI (P31547 whole entry, further chain): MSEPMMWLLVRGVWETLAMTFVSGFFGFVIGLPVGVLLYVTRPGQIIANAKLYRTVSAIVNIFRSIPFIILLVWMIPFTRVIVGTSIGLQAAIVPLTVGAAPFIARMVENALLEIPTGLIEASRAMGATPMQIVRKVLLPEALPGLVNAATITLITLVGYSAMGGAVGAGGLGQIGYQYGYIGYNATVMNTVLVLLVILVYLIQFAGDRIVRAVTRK

Kd: 74 µM
Substance: MetNI (from UniProt P30750)
